Laboratory results from PMC5686756 (2017).

Legend:
[1] = biological target: T1, GB1-tagged ks-vFLIP (residues 1 to 188) (Kaposi's sarcoma-associated herpesvirus …, UniProt Q76RF1 1-188); experiment: ITC; in buffer
[2] = biological target: T1, GB1-tagged ks-vFLIP (residues 1 to 188); experiment: ITC; apparent Kd, competition in presence of spIKKγ (deionized water)

B1: IKKγ fragment encompassing residues 150 to 272 (domain or fragment)
chain: LGELQESQSRLEAATKECQALEGRARAASEQARQLESEREALQQQHSVQVDQLRMQGQSVEAALRMERQAASEEKRKLAQLQVAYHQLFQEYDNHIKSSVVGSERKRGMQLEDLKQQLQQAEE
Kd [1]: 0.2 µM
Kd [2]: 30.4 µM
